Numbering of substitutions follows the chain as printed. Names may count otherwise. Blank lines part the entries; values can stand above or below the binder they belong to.
Target: T1, recombinant human CEACAM-1 (R&D Systems cat. no. 2244-CM-050) (human, UniProt P13688 35-428)
T1 construct: Coated on the ELISA plate at 0.5 ug/ml
T1 sequence (looked up): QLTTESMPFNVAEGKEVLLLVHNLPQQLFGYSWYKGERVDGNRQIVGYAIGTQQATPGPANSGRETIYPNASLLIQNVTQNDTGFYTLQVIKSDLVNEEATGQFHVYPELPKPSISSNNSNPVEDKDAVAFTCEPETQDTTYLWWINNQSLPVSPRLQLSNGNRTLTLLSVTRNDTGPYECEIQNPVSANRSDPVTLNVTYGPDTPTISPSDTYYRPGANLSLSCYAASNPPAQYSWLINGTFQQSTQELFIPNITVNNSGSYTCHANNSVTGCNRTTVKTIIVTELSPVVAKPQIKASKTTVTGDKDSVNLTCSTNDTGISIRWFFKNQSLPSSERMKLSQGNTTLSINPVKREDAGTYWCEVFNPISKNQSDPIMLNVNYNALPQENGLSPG
Experiment: competition ELISA on coated recombinant human CEACAM-1; competitor biotinylated chimeric CM-10 IgG1
From the text: The binding of the biotinylated antibody was detected with streptavidin-HRP (Sigma cat. no. S5512) and TMB substrate (Invitrogen cat. no. 00-2023). The reaction was stopped with 3M HC1, absorbance read at 450 nm on a Dynex Technologies MRX TC II plate reader and the binding curves plotted.

IC50: 0.78 µg/mL | IC50 normalized to CM-10: 1.24 ratio to IC50 of chimeric CM-10
B1: humanized anti-CEACAM-1 variant VH4/VK2, IgG1 (antibody, V domains shown)
VH: QVQLVQSGAEVKKPGASVKVSCKASGYAFTNNLIEWVRQAPGQGLEWIGVINPGSGDTNYNEKFKGRATLTADKSISTAYMELSRLRSDDTAVYYCARGDYYGGFAVDYWGQGTTVTVSS
VL: DIQMTQSPSSLSASVGDRVTITCRTSQDIGNYLNWYQQKPGKAVKLLIYYTSRLHSGVPSRFSGSGSGTDYTLTISSLQPEDIATYFCQQGKSLPRTFGGGTKVEIK
notes: Tested as human IgG1 / kappa antibody; only the variable regions are tied to this variant

IC50: 0.77 µg/mL | IC50 normalized to CM-10: 1.26 ratio to IC50 of chimeric CM-10
B2: humanized anti-CEACAM-1 variant VH3/VK2, IgG4 (S241P) (antibody, V domains shown)
VH: B1 VH with S77N
VL: B1 VL
notes: Tested as human IgG4 (S241P) / kappa antibody; only the variable regions are tied to this variant

IC50: 0.74 µg/mL | IC50 normalized to CM-10: 1.23 ratio to IC50 of chimeric CM-10
B4: humanized anti-CEACAM-1 variant VH5/VK1, IgG4 (S241P) (antibody, V domains shown)
VH: B1 VH with A68V, L70M
VL: B1 VL with P80Q
notes: as for B2

IC50: 0.7 µg/mL | IC50 normalized to CM-10: 1.17 ratio to IC50 of chimeric CM-10
B5: humanized anti-CEACAM-1 variant VH5/VK3, IgG4 (S241P) (antibody, V domains shown)
VH: B1 VH with A68V, L70M
VL: B1 VL with L73F
notes: as for B2

IC50: 0.74 µg/mL | IC50 normalized to CM-10: 1.12 ratio to IC50 of chimeric CM-10
B10: humanized anti-CEACAM-1 variant VH5/VK3, IgG1 (antibody, V domains shown)
VH: B1 VH with A68V, L70M
VL: B1 VL with L73F
notes: as for B1

IC50: 0.77 µg/mL | IC50 normalized to CM-10: 1.17 ratio to IC50 of chimeric CM-10
B11: humanized anti-CEACAM-1 variant VH5/VK1, IgG1 (antibody, V domains shown)
VH: B1 VH with A68V, L70M
VL: B1 VL with P80Q
notes: as for B1

Further lines, the binder ahead of its results:

B3: humanized anti-CEACAM-1 variant VH5/VK2, IgG1 (antibody, V domains shown)
VH: B1 VH with A68V, L70M
VL: B1 VL
notes: as for B1
IC50: 0.72 µg/mL | IC50 normalized to CM-10: 1.09 ratio to IC50 of chimeric CM-10

B6: humanized anti-CEACAM-1 variant VH4/VK3, IgG4 (S241P) (antibody, V domains shown)
VH: B1 VH
VL: B1 VL with L73F
notes: as for B2
IC50: 0.63 µg/mL | IC50 normalized to CM-10: 1.06 ratio to IC50 of chimeric CM-10

B7: humanized anti-CEACAM-1 variant VH4/VK3, IgG1 (antibody, V domains shown)
VH: B1 VH
VL: B1 VL with L73F
notes: as for B1
IC50: 0.99 µg/mL | IC50 normalized to CM-10: 1.56 ratio to IC50 of chimeric CM-10

B8: humanized anti-CEACAM-1 variant VH5/VK2, IgG4 (S241P) (antibody, V domains shown)
VH: B1 VH with A68V, L70M
VL: B1 VL
notes: as for B2
IC50: 0.7 µg/mL | IC50 normalized to CM-10: 1.16 ratio to IC50 of chimeric CM-10

B9: humanized anti-CEACAM-1 variant VH4/VK2, IgG4 (S241P) (antibody, V domains shown)
VH: B1 VH
VL: B1 VL
notes: as for B2
IC50: 0.69 µg/mL | IC50 normalized to CM-10: 1.17 ratio to IC50 of chimeric CM-10

Reference: patent publication US20240092934A1 (FAMEWAVE, published 2024)
